# In the supplement of paper PMC10724198:
# ± gives the standard deviation of the averaged measurements.
# Test system: Saccharomyces cerevisiae
# Test: protein stability index of tFT-peptide fusion (C-terminal peptide) (PSI (0-1 scale)); higher = more stable (slower turnover)
# Conditions: genetic background: wild type; temperature: 30 C
# 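Note: PSI is a weighted mean of sequencing reads over stability bins, variants kept only with over 10 reads, mCherry proximal and sfGFP distal, peptide attached via GGGS linker.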
row,Sequence,protein stability index
1,QTIKKKKKDKKN,0.764 ± 0.011
2,QTNIGRKRTLPR,0.718 ± 0.013
3,QTQNEENKKQKY,0.612 ± 0.13
4,QTVKNYTSQSKR,0.666 ± 0.018
5,QTWVQIGIRITL,0.44 ± 0.087
6,QVGGVRSRGAAG,0.664 ± 0.017
7,QVGSLEIFLCFI,0.6323 ± 0.0016
8,QVKVGQTEMAYN,0.78 ± 0.22
9,QVLIKKRNIKKK,0.651 ± 0.076
10,QVNSAHKRTGSG,0.668 ± 0.061
11,QVVIGRLSSQVG,0.664 ± 0.038
12,QWFTCLFYFRSP,0.5697 ± 0.0029
13,QYGMSSQGGGHN,0.7312 ± 0.0017
14,QYKEFYYQNNRR,0.562 ± 0.062
15,QYMDQIKGRSGT,0.723 ± 0.0079
16,RAADGWGVLCGV,0.679 ± 0.095
17,RAAREASQDIPN,0.753 ± 0.12
18,RACVCPCHPHRY,0.737 ± 0.025
19,RAGFSEPCGSFS,0.668 ± 0.046
20,RAGGGAWAGGVA,0.7085 ± 0.0024
21,RAGSLTSGVCGP,0.663 ± 0.015
22,RAIPRPLPPRRI,0.7164 ± 0.0029
23,RAIPTWPIGDRR,0.655 ± 0.029
24,RALGVPPLSHLP,0.656 ± 0.036
25,RALLGSVVCSYG,0.6268 ± 0.0016

row,Sequence,protein stability index
1,RALPSPPPCPPG,0.524 ± 0.031
2,RAPCSLDFRGNA,0.758 ± 0.12
3,RAPNSVPSIKKP,0.68 ± 0.098
4,RAPPRLHPPFPP,0.676 ± 0.11
5,RAPSLLRPRSPP,0.658 ± 0.12
6,RAPTRDQCPCPG,0.68 ± 0.035
7,RARFSASCRYRV,0.671 ± 0.048
8,RARYGPSYTLPL,0.642 ± 0.027
9,RASAHLVAIVRY,0.642 ± 0.02
10,RASLPKSLPVSY,0.604 ± 0.07
11,RASRGLGWRRND,0.66 ± 0.015
12,RATRLFPPPHFS,0.7 ± 0.037
13,RAVFNMSSPSHI,0.711 ± 0.077
14,RCCGGSEVVRAG,0.705 ± 0.014
15,RCGGGKWWRGAE,0.6566 ± 0.0035
16,RCGSWKGVRGVM,0.693 ± 0.032
17,RCLPSASYPACS,0.691 ± 0.074
18,RCRLGDFLLSFI,0.63 ± 0.034
19,RCVGVTNESTGT,0.661 ± 0.013
20,RDGGVHVFATLM,0.626 ± 0.018
21,RDGHGRHGRGER,0.634 ± 0.024
22,RDLGGECARQVG,0.7 ± 0.04
23,RDMVSPLPLPLL,0.613 ± 0.11
24,RDNKTHSKRAYG,0.648 ± 0.024
25,RDRFSWGRRSDN,0.696 ± 0.041

row,Sequence,protein stability index
1,RDRVSASILVLP,0.6892 ± 0.0056
2,REENIKSKCRKI,0.742 ± 0.021
3,REGGEIGDQEGT,0.674 ± 0.069
4,REKERKRGKAVK,0.698 ± 0.019
5,RERASCHSHTNS,0.675 ± 0.013
6,RERKEVGRRRIG,0.604 ± 0.022
7,RESSAYPPPGEG,0.6551 ± 0.005
8,RESTGRDQRGIV,0.673 ± 0.018
9,RESVLRVGCFQP,0.742 ± 0.072
10,RFCGSGPIVPGQ,0.707 ± 0.019
11,RFETKERGIREK,0.719 ± 0.014
12,RFGCGRRGQWMR,0.722 ± 0.06
13,RFGHLLRFSWLL,0.6477 ± 0.0057
14,RFGLIFTSPHPL,0.63 ± 0.013
15,RFLEKNKKVIDK,0.742 ± 0.037
16,RFLVFLLNFISI,0.564 ± 0.037
17,RFMDPFSGITAF,0.716 ± 0.018
18,RFVGVGWRVEGG,0.676 ± 0.019
19,RGALGGGSNRLA,0.788 ± 0.26
20,RGARWRAGIGRG,0.739 ± 0.088
21,RGCGRLDGRRGG,0.704 ± 0.015
22,RGCTVHSLNSSY,0.6757 ± 0.0022
23,RGCVKQGLYCVL,0.679 ± 0.044
24,RGDIQASKRIHL,0.752 ± 0.046
25,RGDVGVGHWVGG,0.708 ± 0.0093

row,Sequence,protein stability index
1,RGEGLRYVQGSR,0.668 ± 0.042
2,RGFWRGGVVRGG,0.73 ± 0.021
3,RGGGRGGRPRMC,0.607 ± 0.085
4,RGGPTRVSLPPR,0.654 ± 0.016
5,RGGRGLAAGAWW,0.7035 ± 0.0055
6,RGGVGLEGEGGE,0.615 ± 0.026
7,RGGVRGAIHSDL,0.7039 ± 0.0025
8,RGHKHSNNVSRR,0.696 ± 0.019
9,RGKKGQKEPAEK,0.688 ± 0.048
10,RGLSGSHRAGIV,0.69334 ± 0.00034
11,RGPPMPGRRGRA,0.7 ± 0.052
12,RGPPRRLQCLGR,0.7121 ± 0.003
13,RGPRVVYYRLYV,0.722 ± 0.12
14,RGRDLSLCQFFY,0.7364 ± 0.0024
15,RGRPEVRPPGHY,0.707 ± 0.03
16,RGSILTTVNPPR,0.75 ± 0.13
17,RGSSWSRVAGDG,0.631 ± 0.063
18,RGTGRLDRLGLR,0.662 ± 0.043
19,RGVCGVGLYTGG,0.657 ± 0.02
20,RGVGCDMGGDGG,0.65 ± 0.042
21,RGVGLGRWGPVV,0.652 ± 0.0081
22,RGVGVRYGVARR,0.6695 ± 0.006
23,RGVTEYDSGSSL,0.647 ± 0.045
24,RGWVAGGSSAWS,0.673 ± 0.054
25,RGWVGGGSSAWS,0.651 ± 0.024

row,Sequence,protein stability index
1,RGWWVLCGGGWG,0.567 ± 0.026
2,RHAVNAQPVARP,0.647 ± 0.036
3,RHHRACLNTRLG,0.671 ± 0.065
4,RHISRIYVERRY,0.695 ± 0.02
5,RHRGVYMDRGCL,0.663 ± 0.053
6,RHRPLPETDLAS,0.708 ± 0.016
7,RHSSRYLIEFDN,0.744 ± 0.03
8,RHYGRSLRLIKT,0.59 ± 0.011
9,RHYLWAECGSSE,0.709 ± 0.017
10,RIALWPTSMPAL,0.684 ± 0.041
11,RIAWTKEKMGKT,0.661 ± 0.024
12,RIDHYIFYVNAV,0.675 ± 0.017
13,RIFSPVFLSMSV,0.649 ± 0.018
14,RIGKKKRYNEKS,0.751 ± 0.062
15,RIINRATIIIKL,0.564 ± 0.0065
16,RIKEYITDEKNR,0.674 ± 0.056
17,RINIDLKKIAKK,0.689 ± 0.05
18,RIRGPECDLWFR,0.707 ± 0.019
19,RIRTLASRRLEG,0.709 ± 0.1
20,RISIHGECHFHK,0.654 ± 0.014
21,RIVVDIYANRRG,0.689 ± 0.02
22,RKDDRPYIRETS,0.701 ± 0.016
23,RKDKKKKGSKEE,0.69 ± 0.046
24,RKEQEDVHNKKK,0.671 ± 0.051
25,RKEVKAWKTTDI,0.694 ± 0.013

row,Sequence,protein stability index
1,RKKKKKKENKRR,0.754 ± 0.054
2,RKKKKKKKKKSN,0.631 ± 0.089
3,RKKQKKQKKKKG,0.682 ± 0.0092
4,RKKRFENKKEKY,0.731 ± 0.057
5,RKNHKKNHKTRI,0.65 ± 0.087
6,RKNKQVDLCHRE,0.676 ± 0.037
7,RKSRKPNSEPKR,0.717 ± 0.0072
8,RKSTVILLLTDT,0.668 ± 0.054
9,RKTKKEEKTKRN,0.719 ± 0.2
10,RKVTQSKQGKKR,0.722 ± 0.0093
11,RKYKKKKGSKEE,0.708 ± 0.063
12,RLCPNSITLPSL,0.7156 ± 0.0018
13,RLDVVGVPERTL,0.762 ± 0.047
14,RLEKGEDREGKK,0.641 ± 0.085
15,RLEMPSVRSCAV,0.638 ± 0.17
16,RLFGFGEQKIEE,0.695 ± 0.021
17,RLGERGAKPQGR,0.635 ± 0.0074
18,RLGGTMVVGTGG,0.661 ± 0.041
19,RLGHAIVLLLPC,0.57 ± 0.027
20,RLGKRKKPYTQG,0.756 ± 0.077
21,RLGLQWGEFGTL,0.72 ± 0.033
